# T1: GST-fused AP-3µ (Arabidopsis thaliana, UniProt F4I562 1-415)
# T1 construct: AP-3µ of Arabidopsis thaliana; construction is in Supplementary Method S2, induction and purification in Supplementary Method S3; also called GST-AP-3µ; pGEX-5X-AP-3µ
# T1 sequence (looked up): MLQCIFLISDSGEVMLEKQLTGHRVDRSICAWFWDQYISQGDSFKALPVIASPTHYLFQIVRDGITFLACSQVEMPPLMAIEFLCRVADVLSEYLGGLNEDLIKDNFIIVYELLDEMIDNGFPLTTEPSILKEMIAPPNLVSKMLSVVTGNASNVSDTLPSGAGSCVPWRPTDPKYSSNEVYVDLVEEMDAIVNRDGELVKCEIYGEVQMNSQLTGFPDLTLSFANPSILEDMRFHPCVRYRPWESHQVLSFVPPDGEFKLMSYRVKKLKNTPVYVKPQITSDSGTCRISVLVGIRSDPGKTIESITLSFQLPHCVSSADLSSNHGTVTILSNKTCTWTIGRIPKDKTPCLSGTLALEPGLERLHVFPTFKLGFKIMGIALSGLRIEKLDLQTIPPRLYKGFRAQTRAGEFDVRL
# Biological target: T1, GST-fused AP-3µ
# Assay: pull-down; GST-AP-3µ or GST-AP-3µ^DN bound to Glutathione Sepharose 4 Fast Flow, washed with PBS, incubated with purified His-AGB1 at room temperature for 60 min; eluted with 20 mM reduced glutathione; immunoblot with anti-GST and HisProbe-HRP
# Settings: both partners purified
binder,measurement,value
"Polyhistidine-tagged AGB1 (natural protein, Arabidopsis thaliana, UniProt P49177 1-377, looked up, AGB1, G-protein β subunit of Arabidopsis thaliana; His-AGG1 is named in the same sentence but in no result; also called His-AGB1; His-tagged AGB1; source: E. coli, purified) MSVSELKERHAVATETVNNLRDQLRQRRLQLLDTDVARYSAAQGRTRVSFGATDLVCCRTLQGHTGKVYSLDWTPERNRIVSASQDGRLIVWNALTSQKTHAIKLPCAWVMTCAFSPNGQSVACGGLDSVCSIFSLSSTADKDGTVPVSRMLTGHRGYVSCCQYVPNEDAHLITSSGDQTCILWDVTTGLKTSVFGGEFQSGHTADVLSVSISGSNPNWFISGSCDSTARLWDTRAASRAVRTFHGHEGDVNTVKFFPDGYRFGTGSDDGTCRLYDIRTGHQLQVYQPHGDGENGPVTSIAFSVSGRLLFAGYASNNTCYVWDTLLGEVVLDLGLQQDSHRNRISCLGLSADGSALCTGSWDSNLKIWAFGGHRRVI",binding result,binds
